Test results published in patent publication US20250027945A1 (University of California, published 2025).

Legend:
[1] = target: T1, human RYK on the surface of human tumor cell lines (human, UniProt P34925 46-607); assay: flow cytometry, A673 cells (Ewings sarcoma), 5 ug/ml 2-D11-Alexa647
T1 construct: whole, on cells; Endogenous expression
Method: (§1) Table 1 provides the flow cytometry data on various cancer cell lines stained with fluorochrome-conjugated 2-D11, as depicted in FIG. 8. The name of each cell line is listed in the first column and the tissue of origin is listed in the second column. Binding of the 2-D11 mAb to human RYK was assessed by flow cytometric staining and analysis by staining on ice for 20 minutes with 5 μg/ml of 2-D11 anti-human RYK-Alexa647 conjugated mAb or equal amounts of isotype matched control mAb, washed, and analyzed. The median fluorescence intensity (MFI) of 2-D11 stained cells is listed in the middle column and the MFI of isotype control stained cells are listed in the in the adjacent column. Cell lines were scored as “++”, “+”, or neg (unmarked with “+”) lines based on the ratio of median fluorescence intensity (MFI) of stained cells relative to the MFI of isotype control stained cells (MFIR).
(§2) The name of each cell line is listed in the first column and the tissue of origin is listed in the second column. Binding of the 2-D11 mAb to human RYK was assessed by flow cytometric staining and analysis by staining on ice for 20 minutes with 5 μg/ml of 2-D11 anti-human RYK-Alexa647 conjugated mAb or equal amounts of isotype matched control mAb, washed and analyzed. […]

[2] = target: T1, human RYK on the surface of human tumor …; assay: flow cytometry, NALM6 cells (ALL), 5 ug/ml 2-D11-Alexa647; line unmarked (no staining)
Method: as §1, §2

[3] = target: T1, human RYK on the surface of human tumor …; assay: flow cytometry, CAPAN-2 cells (pancreas), 5 ug/ml 2-D11-Alexa647; line unmarked (no staining)
Method: as §1, §2

[4] = target: T1, human RYK on the surface of human tumor …; assay: flow cytometry, MINO cells (mantle), 5 ug/ml 2-D11-Alexa647
Method: as §1, §2

[5] = target: T1, human RYK on the surface of human tumor …; assay: flow cytometry, SW948 cells (colon), 5 ug/ml 2-D11-Alexa647; line unmarked (no staining)
Method: as §1, §2

[6] = target: T1, human RYK on the surface of human tumor …; assay: flow cytometry, OVCAR4 cells (ovarian), 5 ug/ml 2-D11-Alexa647
Method: as §1, §2

[7] = target: T1, human RYK on the surface of human tumor …; assay: flow cytometry, SW620 cells (colon), 5 ug/ml 2-D11-Alexa647; line unmarked (no staining)
Method: as §1, §2

[8] = target: T1, human RYK on the surface of human tumor …; assay: flow cytometry, CAPAN-1 cells (pancreas), 5 ug/ml 2-D11-Alexa647
Method: as §1, §2

[9] = target: T1, human RYK on the surface of human tumor …; assay: flow cytometry, PC3 cells (prostate), 5 ug/ml 2-D11-Alexa647; line unmarked (no staining)
Method: as §1, §2

[10] = target: T1, human RYK on the surface of human tumor …; assay: flow cytometry, HELA cells (ovarian as printed), 5 ug/ml 2-D11-Alexa647; line unmarked (no staining)
Method: as §1, §2

[11] = target: T1, human RYK on the surface of human tumor …; assay: flow cytometry, MEC1 cells (CLL), 5 ug/ml 2-D11-Alexa647; line unmarked (no staining)
Method: as §1, §2

[12] = target: T1, human RYK on the surface of human tumor …; assay: flow cytometry, H446 cells (lung), 5 ug/ml 2-D11-Alexa647
Method: as §1, §2

[13] = target: T1, human RYK on the surface of human tumor …; assay: flow cytometry, U937 cells (monocyte cancer), 5 ug/ml 2-D11-Alexa647; line unmarked (no staining)
Method: as §1, §2

[14] = target: T1, human RYK on the surface of human tumor …; assay: flow cytometry, JEKO cells (mantle), 5 ug/ml 2-D11-Alexa647; line unmarked (no staining)
Method: as §1, §2

[15] = target: T1, human RYK on the surface of human tumor …; assay: flow cytometry, MDA-MB-231 cells (breast), 5 ug/ml 2-D11-Alexa647; line unmarked (no staining)
Method: as §1, §2

[16] = target: T2, recombinant human RYK protein used in KinExA (human, UniProt P34925 46-227, limits assumed); assay: KinExA 3200, soluble RYK competitor against RYK-coated particles
T2 construct: Legend prints 'RYK2'; also called recombinant human RYK2 protein
T2 sequence (P34925 46-227 limits assumed, form in doubt): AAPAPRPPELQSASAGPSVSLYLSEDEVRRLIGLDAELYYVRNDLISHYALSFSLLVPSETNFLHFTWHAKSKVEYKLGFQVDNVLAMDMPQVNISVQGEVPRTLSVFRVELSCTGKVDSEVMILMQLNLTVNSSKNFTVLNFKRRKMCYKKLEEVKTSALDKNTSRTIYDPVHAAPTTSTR
Method: Analysis was performed using a KinExA 3200 instrument. FIG. 7A: The proportion of anti-human RYK mAb bound to particles coated with RYK protein (y-axis) in the presence of increasing molar (M) concentration of soluble RYK competitor (x-axis) is shown for 2-D11 mAb (upper left panel) and 7-H10 mAb (lower left panel).

[17] = target: T1, human RYK on the surface of human tumor …; assay: flow cytometry, H460 cells (lung), 5 ug/ml 2-D11-Alexa647
Method: as §1, §2

[18] = target: T1, human RYK on the surface of human tumor …; assay: flow cytometry, HS-578T cells (breast), 5 ug/ml 2-D11-Alexa647
Method: as §1, §2

[19] = target: T1, human RYK on the surface of human tumor …; assay: flow cytometry, T24 cells (bladder), 5 ug/ml 2-D11-Alexa647
Method: as §1, §2

T1 sequence (P34925 46-607 limits assumed, form in doubt): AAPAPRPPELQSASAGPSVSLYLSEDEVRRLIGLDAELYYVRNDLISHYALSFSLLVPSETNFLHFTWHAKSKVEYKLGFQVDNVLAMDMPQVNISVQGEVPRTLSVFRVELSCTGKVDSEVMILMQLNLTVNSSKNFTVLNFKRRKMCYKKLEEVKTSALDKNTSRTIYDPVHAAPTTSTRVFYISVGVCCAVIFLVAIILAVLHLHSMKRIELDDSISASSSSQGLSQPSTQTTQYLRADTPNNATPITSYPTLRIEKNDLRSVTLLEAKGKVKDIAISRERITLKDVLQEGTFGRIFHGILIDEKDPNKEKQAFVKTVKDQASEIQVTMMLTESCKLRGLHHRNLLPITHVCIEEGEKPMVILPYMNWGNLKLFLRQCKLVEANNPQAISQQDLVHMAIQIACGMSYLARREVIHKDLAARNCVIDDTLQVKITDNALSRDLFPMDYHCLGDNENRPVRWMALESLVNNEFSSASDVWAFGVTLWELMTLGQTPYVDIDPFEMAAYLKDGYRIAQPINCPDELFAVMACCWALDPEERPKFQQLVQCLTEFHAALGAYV

MFIR (MFI ratio to isotype control) [1]: 1.5 | MFIR (MFI ratio to isotype control) [2]: 1.3 | MFIR (MFI ratio to isotype control) [3]: 1.3 | MFIR (MFI ratio to isotype control) [4]: 2 | MFIR (MFI ratio to isotype control) [5]: 1.1 | MFIR (MFI ratio to isotype control) [6]: 2.1 | MFIR (MFI ratio to isotype control) [7]: 1.2 | MFIR (MFI ratio to isotype control) [8]: 1.5 | MFIR (MFI ratio to isotype control) [9]: 1.2 | MFIR (MFI ratio to isotype control) [10]: 1.1 | MFIR (MFI ratio to isotype control) [11]: 1.1 | MFIR (MFI ratio to isotype control) [12]: 2.6 | MFIR (MFI ratio to isotype control) [13]: 1.2 | MFIR (MFI ratio to isotype control) [14]: 1.3 | MFIR (MFI ratio to isotype control) [15]: 1.1 | Kd [16]: 0.513 nM | MFIR (MFI ratio to isotype control) [17]: 1.5 | MFIR (MFI ratio to isotype control) [18]: 2.7 | MFIR (MFI ratio to isotype control) [19]: 1.6
B1: 2-D11 anti-human RYK mAb (antibody, V domains shown)
VH: QVQLKESGPGLVAPSQSLSITCSVSGFSLNDYGVNWVRQPPGKDLEWLGMIWGDGVTEYNSTLKSRLSISKDNSKSQVFLKMNNLQTEDTARYYCVRQGSGVWFAHWGQGTLVSVSS
VL: DVLVTQTPLSLPVSLGDQASISCRSSQTIVHSNGNTYLEWYLQKPGQSPKLLIYKVSNRFSGVPDRFSGSGSGTDFTLKISRVEAEDLGIYYCFQGSHVPYTFGGGTKLEIK
notes: Mouse hybridoma mAb, kappa light chain, detected with anti-mouse IgG; also called mAb 2-D11; 2-D11 anti-human RYK-Alexa647 conjugated mAb
